“Also recorded” adds a separate entry of the source. Blank lines part the entries; values can stand above or below the molecule they belong to.
How the values were obtained:
SHP2 = target: T1, SHP2 (Rattus norvegicus, UniProt P41499); assay: von Frey filament test after intrathecal netrin-4 mixed with SHP inhibitor; type: in vivo; details: inhibitor 1 mM mixed with netrin-4 40 ng/μL, 10 μL intrathecal; for change in withdrawal threshold after administration of mixture with netrin-4: 12, 24 and 48 hours; for degree of reduction in withdrawal threshold at 24 hours after administration: vs netrin-4 alone
T1 construct: SHP2 is expressed in the neurons of the dorsal horn of the spinal cord; from tissue; host or cells: spinal cord of living rats (in vivo, intrathecal administration)
T1 sequence (P41499 1-593): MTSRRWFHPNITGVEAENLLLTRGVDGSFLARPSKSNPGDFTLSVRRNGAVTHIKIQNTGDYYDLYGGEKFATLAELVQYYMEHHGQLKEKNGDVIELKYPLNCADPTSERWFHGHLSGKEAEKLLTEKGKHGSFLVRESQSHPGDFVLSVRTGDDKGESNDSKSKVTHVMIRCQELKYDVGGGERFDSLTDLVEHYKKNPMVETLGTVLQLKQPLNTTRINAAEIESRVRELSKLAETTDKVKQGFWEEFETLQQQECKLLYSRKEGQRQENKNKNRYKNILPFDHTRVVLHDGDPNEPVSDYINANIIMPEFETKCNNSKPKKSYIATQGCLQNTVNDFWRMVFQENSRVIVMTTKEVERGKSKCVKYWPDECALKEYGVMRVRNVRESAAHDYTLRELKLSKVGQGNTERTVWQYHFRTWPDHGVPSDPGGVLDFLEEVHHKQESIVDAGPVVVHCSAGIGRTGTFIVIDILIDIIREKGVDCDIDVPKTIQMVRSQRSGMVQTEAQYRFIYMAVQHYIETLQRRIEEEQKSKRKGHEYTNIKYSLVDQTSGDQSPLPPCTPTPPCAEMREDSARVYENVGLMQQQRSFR
Experimental: (§1) The von Frey filament test was used to measure the response to mechanical stimuli. Before the test, a plastic case was set onto a metallic mesh, and the pain model rat was put into the plastic case and acclimated to the environment for 5 to 10 minutes until settled. A filament (Semmes-Weinstein Von Frey Anesthesiometer, Muromachi Kikai Co., Ltd.) was applied to the center of the plantar surface of the hindpaw for 3 to 5 seconds, and the threshold for hindpaw withdrawal (g) was measured. After the measurement of the withdrawal thresholds of both the paws was completed, the animal used was identified from the ear tag and then returned to a breeding cage.
(§2) A purified netrin-4 protein (R&D) was dissolved in physiological saline to give a 40 ng/μL netrin-4 solution. […] (Calbiochem), an inhibitor of SHPs, was dissolved at a concentration of 50 mM in sterilized water and kept refrigerated until use. The solution was diluted 50-fold with physiological saline before use. PTPi4 (bis(4-trifluoromethylsulfonamidophenyl)-1,4-diisopropylben zene, Protein Tyrosine Phosphatase Inhibitor IV, Calbiochem), an inhibitor of SHP2, was dissolved at a concentration of 16.4 mM in DMSO (dimethyl sulfoxide, Sigma-Aldrich) and kept refrigerated until use. The solution was diluted to a final concentration of 1 mM with physiological saline before use.
In order to clarify whether the activation of SHP2 is required for the action of netrin-4 on the potentiation of nociceptive response, it was examined whether intrathecal administration of a SHPs inhibitor, NSC87877, or a SHP2 inhibitor, PTPi4 (bis(4-trifluoromethylsulfonamidophenyl)-1,4-diisopropylben zene, Protein Tyrosine Phosphatase Inhibitor IV), would cancel the effect of intrathecal administration of netrin-4. NSC87877 (final concentration: 1 mM) or PTPi4 (final concentration: 1 mM) was mixed with netrin-4 (final concentration: 40 ng/μL , and 10 uL of the mixture was infused from the rear end of the polyethylene tube retained in the medullary cavity. The von Frey filament test was conducted at 12, 24 and 48 hours after the administration to examine the change in withdrawal threshold.

[1] = tested on: glial cells or immune cells in the spinal cord; assay: Immunostaining of Iba1, GFAP, CD3ε and CD45R in lumbar cord tissue after intrathecal netrin-4; type: in vivo, rat; details: lumbar cord tissue 48 hours after intrathecal administration, vs physiological saline
Experimental: (§3) Rat tissue fixation was performed by perfusion under deep anesthesia with intraperitoneal pentobarbital. For the fixation, 0.1 M phosphate buffer was perfused, followed by a 4% PFA solution (a solution of 4% paraformaldehyde (Nacalai Tesque) in 0.1 M phosphate buffer). After the perfusion-fixation, the lumbar enlargement of the spinal cord was dissected, immersed in a 4% PFA solution and further fixed for 6 hours. The 4% PFA solution was replaced with a solution of 30% sucrose (Nacalai Tesque) in 0.1 M phosphate buffer before incubation with agitation at 4° C. for two consecutive days. The lumbar cord tissue was embedded in OCT compound (Sakura Finetek Japan Co., Ltd.), frozen and sliced to a thickness of 20 μm with a cryostat, and the resulting section was mounted onto a slide glass (Matsunsmi Glass Ind., Ltd.). The specimen was immersed in a 5% BSA solution (a solution of 5% BSA (bovine serum albumin, Sigma-Aldrich) in 0.1 M phosphate buffer) at room temperature for 2 hours. The 5% BSA solution was replaced with a 5% BSA solution containing a primary antibody, and the reaction was allowed to proceed at 4° C. for two consecutive days. […] After washing with 0.1 M phosphate buffer 3 times, the specimen was coverslipped with a mounting medium and then observed under a fluorescence microscope. […]

male Wistar rat = assay: von Frey filament test after intrathecal administration of netrin-4 to rats; type: in vivo
Experimental: as §1, §2
In order to clarify the function of netrin-4 in the spinal cord in an in vivo setting, the change in nociceptive response after intrathecal administration of netrin-4 was examined. First, a polyethylene tube was inserted into the medullary cavity of an 8-week-old male Wistar rat. One week after the intubation, the von Frey filament test was conducted to confirm, the absence of intubation-caused motor dysfunction. Ten microliters of a netrin-4 solution (40 ng/μL) was infused from the rear end of the tube retained in the medullary cavity. Meanwhile, the same volume of physiological saline was administered to each animal of the control group. The von Frey filament test was conducted at 12, 24 and 48 hours after the administration to examine the change in withdrawal threshold.
Ten microliters of a netrin-4 solution (40 ng/μL), a 10% netrin-4 solution (4 ng/μL) , a 1% netrin-4 solution (0.4 ng/μL) or a thermally denatured netrin-4 solution (prepared by heat treatment of a netrin-4 solution (40 ng/μL) at 100° C. for 10 minutes) was administered in the same manner as in Experiment 1, and the degree of the change in withdrawal threshold from before to 24 hours after the administration was calculated.

[2] = tested on: neurons in the dorsal horn of the spinal cord (c-fos); assay: Immunostaining of c-fos in lumbar cord tissue after intrathecal netrin-4; type: in vivo, rat; details: lumbar cord tissue 48 hours after intrathecal administration, vs physiological saline
Experimental: as §3

- degree of reduction in withdrawal threshold at 24 hours after administration (SHP2): significantly curbed
Molecule: O=S(=O)(O)c1ccc2cc(N=Nc3cc(S(=O)(=O)O)c4cccnc4c3O)ccc2c1 [NSC87877]
- change in withdrawal threshold after administration of mixture with netrin-4 (SHP2): reduction in withdrawal threshold was observed in the group of administration of netrin-4 alone, but not

- degree of reduction in withdrawal threshold at 24 hours after administration (SHP2): significantly curbed
Molecule: CC(C)(c1ccc(NS(=O)(=O)C(F)(F)F)cc1)c1ccc(C(C)(C)c2ccc(NS(=O)(=O)C(F)(F)F)cc2)cc1 [PTPi4, bis(4-trifluoromethylsulfonamidophenyl)-1,4-diisopropylben zene]
- change in withdrawal threshold after administration of mixture with netrin-4 (SHP2): reduction in withdrawal threshold was observed in the group of administration of netrin-4 alone, but not

B1: netrin-4: purified netrin-4 protein (R&D) dissolved in physiological saline (protein, UniProt Q9HB63 19-628, looked up)
Netrin-4: GLSGVAGVSSRCEKACNPRMGNLALGRKLWADTTCGQNATELYCFYSENTDLTCRQPKCDKCNAAYPHLAHLPSAMADSSFRFPRTWWQSAEDVHREKIQLDLEAEFYFTHLIVMFKSPRPAAMVLDRSQDFGKTWKPYKYFATNCSATFGLEDDVVKKGAICTSKYSSPFPCTGGEVIFKALSPPYDTENPYSAKVQEQLKITNLRVQLLKRQSCPCQRNDLNEEPQHFTHYAIYDFIVKGSCFCNGHADQCIPVHGFRPVKAPGTFHMVHGKCMCKHNTAGSHCQHCAPLYNDRPWEAADGKTGAPNECRTCKCNGHADTCHFDVNVWEASGNRSGGVCDDCQHNTEGQYCQRCKPGFYRDLRRPFSAPDACKPCSCHPVGSAVLPANSVTFCDPSNGDCPCKPGVAGRRCDRCMVGYWGFGDYGCRPCDCAGSCDPITGDCISSHTDIDWYHEVPDFRPVHNKSEPAWEWEDAQGFSALLHSGKCECKEQTLGNAKAFCGMKYSYVLKIKILSAHDKGTHVEVNVKIKKVLKSTKLKIFRGKRTLYPESWTDRGCTCPILNPGLEYLVAGHEDIRTGKLIVNMKSFVQHWKPSLGRKVMDILKRECK
- cell morphology and spinal distribution of Iba1, GFAP, CD3ε and CD45R positive cells [1]: No remarkable difference
- change in withdrawal threshold (von Frey filament test) (male Wistar rat; intrathecal 10 μL of 40 ng/μL, 12, 24 and 48 hours after administration): significant reduction in the netrin-4-administered rats versus the control group at 12, 24 and 48 hours after the administration; also recorded: reduction in withdrawal threshold was observed
- degree of change in withdrawal threshold from before to 24 hours after administration (male Wistar rat; intrathecal 10 μL of 1% netrin-4 solution (0.4 ng/μL)): no significant reduction was observed
- degree of change in withdrawal threshold from before to 24 hours after administration (male Wistar rat; intrathecal 10 μL of 10% netrin-4 solution (4 ng/μL)): reduction in withdrawal threshold was observed
- number of c-fos-positive cells in the dorsal horn of the spinal cord [2]: increased as compared with that in the control group

B2: thermally denatured netrin-4: netrin-4 solution (40 ng/μL) heat-treated at 100° C. for 10 minutes (protein, UniProt Q9HB63 19-628, looked up)
Netrin-4: GLSGVAGVSSRCEKACNPRMGNLALGRKLWADTTCGQNATELYCFYSENTDLTCRQPKCDKCNAAYPHLAHLPSAMADSSFRFPRTWWQSAEDVHREKIQLDLEAEFYFTHLIVMFKSPRPAAMVLDRSQDFGKTWKPYKYFATNCSATFGLEDDVVKKGAICTSKYSSPFPCTGGEVIFKALSPPYDTENPYSAKVQEQLKITNLRVQLLKRQSCPCQRNDLNEEPQHFTHYAIYDFIVKGSCFCNGHADQCIPVHGFRPVKAPGTFHMVHGKCMCKHNTAGSHCQHCAPLYNDRPWEAADGKTGAPNECRTCKCNGHADTCHFDVNVWEASGNRSGGVCDDCQHNTEGQYCQRCKPGFYRDLRRPFSAPDACKPCSCHPVGSAVLPANSVTFCDPSNGDCPCKPGVAGRRCDRCMVGYWGFGDYGCRPCDCAGSCDPITGDCISSHTDIDWYHEVPDFRPVHNKSEPAWEWEDAQGFSALLHSGKCECKEQTLGNAKAFCGMKYSYVLKIKILSAHDKGTHVEVNVKIKKVLKSTKLKIFRGKRTLYPESWTDRGCTCPILNPGLEYLVAGHEDIRTGKLIVNMKSFVQHWKPSLGRKVMDILKRECK
modifications: heat-denatured
notes: netrin-4 solution (40 ng/μL) heat-treated at 100° C. for 10 minutes
- degree of change in withdrawal threshold from before to 24 hours after administration (male Wistar rat; intrathecal 10 μL of 40 ng/μL solution heat-treated at 100° C. for 10 minutes): did not reduce the withdrawal threshold

Source: patent US20180230469A1, “METHOD OF TREATING PAIN WITH AN ANTIBODY AGAINST NETRIN-4, UNC5B OR NEOGENIN” (OSAKA UNIVERSITY, priority 2013, published 2018)
